Measured values from article PMC7251095.

Biological target: E. coli F1Fo ATP synthase subunit b (cysteine free) (E. coli) (UniProt P0ABA0)
Experiment: cryo-EM structure; detergent-solubilized (digitonin) cysteine free E. coli F1Fo ATP synthase at 11 μM with 10 mM MgADP, 22 °C for 30 s before freezing; 300 kV; nine sub-states and a Fo focused map of Sub-state 3A

E. coli F1Fo ATP synthase subunit b (cysteine free) (from UniProt P0ABA0 1-156) (natural protein)
stoichiometry N: 2
